According to patent US20110135573A1, “METALLOPROTEINASE 9 AND METALLOPROTEINASE 2 BINDING PROTEINS” (DYAX CORP., priority 2009, published 2011):

Tests used:
[1] = biological target: T1, Human MMP-9 catalytic domain (Homo sapiens, UniProt P14780); experiment: Inhibition progress curves and kinetic analysis (kobs, kon, koff); assay type: biochemical; conditions: 25° C.; for kobs: substrate 9 μM
T1 construct: Human MMP-9 catalytic domain (BIOMOL, SE-244); purchased BIOMOL SE-244
Procedure: The kinetics of the interaction between M0237-D02 and the human MMP-9 were determined. The rates were determined using the following equation: […]
The second order rate constant for the association of the enzyme E and the inhibitor I (kon) and the first order rate constant for the dissociation of the complex EI (koff) can be calculated from inhibition progress curves obtained at different inhibitor concentrations.
Materials: • Substrate: Mca-KPLGL-Dap(Dnp)-AR-NH2 (M-2350) from BACHEM (521575). A 10 mM stock solution was prepared in DMSO. • Human MMP-9 catalytic domain (BIOMOL, SE-244). • M0237-D02 hIgG1: 2517-068. • All measurements were performed at 25° C. in TCNB: 50 mM Tris/HCl, 10 mM CaCl2, 150 mM NaC10.05% Brij 35, pH 7.5. • 96-well black plates from Perkin Elmer (6005270) • Spectramax M2e to measure fluorescence emission of the substrate upon hydrolysis (λexc=328 nm and λem=393 nm)
The enzyme (at a final concentration ranging from 1.5 to 12.3 nM), the substrate (9 μM final) and the M0237-D02 antibody were mixed, and the fluorescence was immediately recorded in order to follow the hydrolysis of the substrate. The observed inhibition rate (kobs) was obtained by analyzing the progress curves with a single exponential. The value for kon and koff were calculated from the plot of the kobs vs. the antibody concentration using the following equation: […]

[2] = test system: Colo205 tumor sections; experiment: Film in situ zymography (FIZ) on frozen tumor sections; assay type: cell-based, human; conditions: 500 nM; 37° C. overnight
Procedure: (§1) PBS-control treated tumors were screened with M0237-D02 for gelatinase expression using the FIZ approach. The tumors tested were Colo205 and MCF-7. Briefly, frozen slides of tumpor sections were dried at room temperature and 200 μl of in situ Zymo buffer (TCNB)+20 μg/ml of gelatin quenched substrate from molecular probes was added. The slides were incubate at 37° C. overnight in the presence of M0237-D02 at 500 nM or GM6001 used as a positive control at 100 μM. The substrate was washed in MilliQ (3 times) and the mounted slides were treated with anti-Fade+Dapi mounting medium.

[3] = test system: MCF-7 tumor sections; experiment: as above; assay type: cell-based, human; conditions: 500 nM; 37° C. overnight
Procedure: as §1

[4] = biological target: T2, Mouse MMP-9 (Mus musculus, UniProt P41245); experiment: Enzyme inhibition assay (single point inhibition, IC50/Ki,app), substrate M-2350; assay type: biochemical
T2 construct: purchased R&D Systems 909-MM (909-MM-010)
Procedure: (§2) 343 unique sFabs from the anti-MMP-9/-2 M237-D02 affinity maturation campaign were discovered by phage display, produced in small scale (6 mL cultures in deep 24-well plates) and screened to select inhibitors with sub-nanomolar potency against the human enzymes and at least single-digit nanomolar potency toward the mouse orthologues. […] Isolates which appeared potent against both human and mouse MMP-2 were then subjected to IC50 analysis against hMMP-9. Sub-nanomolar inhibitors of hMMP-9 were further tested by IC50 analysis against mMMP-9 and h/m MMP-2, if sufficient small-scale sFab material was available. Thirteen potential h/m MMP-9/-2 sFab inhibitors were then produced in medium scale (250 mL cultures in flasks) and retested for h/m MMP-9 and h/m MMP-2 inhibition. Five potential lead candidates were reformatted as IgGs and retested in enzyme inhibition assays.
(§3) Human MMP-9 (Biomol #SE-244), mouse MMP-9 (R&D Systems #909-MM-010), human MMP-2 (Biomol #SE-237) and mouse MMP-2 (R&D Systems #924-MP-010) were tested at final concentrations of 1 nM, 0.25-0.4 nM, 2.5 nM and 0.2 nM, respectively. Target enzymes were incubated with inhibitor for two hours at 30° C. in reaction buffer (50 mM Tris-HCl pH 7.5, 150 mM NaCl, 5 mM CaCl2, 0.05% Brij-35) in a total volume of 90 μL using a white 96 well plate (Costar). Reactions contained 5 μL of small-scale sFab stock solution (average concentration of 500 nM) for single point inhibition analysis or a concentration series of sFab/IgG for IC50 Ki,app determinations. Commercially available anti-MMP-9 antibodies (Millipore mAb 13415 and R&D Systems polyclonal IgG #AB911) were tested by IC50 analyses using 100 nM and 500 nM as the highest inhibitor concentrations, respectively. An anti-MMP-2 antibody (R&D Systems polyclonal IgG #AF902) was similarly tested with 200 nM as the highest inhibitor concentration. Reactions were initiated by the addition of 10 μL of a 10× concentrated stock of substrate, Mca-Lys-Pro-Leu-Gly-Leu-Dap(Dnp)-Ala-Arg-NH2, (Bachem M-2350), at final concentration of 10 μM and monitored at 30° C. in a Molecular Devices' Gemini fluorescence plate reader. The excitation and emission wavelengths were set at 328 nm and 393 nm, respectively. Kinetic data were acquired by the increase in fluorescence, and initial rates for each condition were plotted against the total inhibitor concentration. Reactions were performed in duplicates and all data replicates were plotted in a single graph and fit to the following equation^1:
(§4) Where A=initial rate observed at each inhibitor concentration; Ao=initial rate observed in the absence of inhibitor; Ainh=initial rate observed for the enzyme inhibitor complex; Inh=concentration of inhibitor; E=total enzyme concentration (treated as a floated parameter); and Ki,app=apparent equilibrium inhibition constant.

[5] = biological target: T3, human MMP-2 (Homo sapiens, UniProt P08253); experiment: as above; assay type: biochemical
T3 construct: purchased Biomol SE-237
Procedure: as §2, §3, §4

[6] = biological target: T4, mouse MMP-2 (Mus musculus, UniProt P33434); experiment: as above; assay type: biochemical
T4 construct: purchased R&D Systems 924-MP-010
Procedure: as §2, §3, §4

[7] = from plot of kobs vs. antibody concentration

T1 sequence (P14780 107-444 limits assumed): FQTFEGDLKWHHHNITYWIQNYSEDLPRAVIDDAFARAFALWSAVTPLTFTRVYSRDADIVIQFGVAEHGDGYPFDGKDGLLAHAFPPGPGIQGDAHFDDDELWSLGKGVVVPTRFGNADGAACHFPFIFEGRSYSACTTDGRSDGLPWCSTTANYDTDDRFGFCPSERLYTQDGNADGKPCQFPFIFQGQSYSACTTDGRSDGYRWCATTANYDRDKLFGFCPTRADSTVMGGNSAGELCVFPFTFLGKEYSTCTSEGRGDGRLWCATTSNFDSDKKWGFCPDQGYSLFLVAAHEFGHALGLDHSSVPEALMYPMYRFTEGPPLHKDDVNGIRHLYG
T4 sequence (P33434 110-662): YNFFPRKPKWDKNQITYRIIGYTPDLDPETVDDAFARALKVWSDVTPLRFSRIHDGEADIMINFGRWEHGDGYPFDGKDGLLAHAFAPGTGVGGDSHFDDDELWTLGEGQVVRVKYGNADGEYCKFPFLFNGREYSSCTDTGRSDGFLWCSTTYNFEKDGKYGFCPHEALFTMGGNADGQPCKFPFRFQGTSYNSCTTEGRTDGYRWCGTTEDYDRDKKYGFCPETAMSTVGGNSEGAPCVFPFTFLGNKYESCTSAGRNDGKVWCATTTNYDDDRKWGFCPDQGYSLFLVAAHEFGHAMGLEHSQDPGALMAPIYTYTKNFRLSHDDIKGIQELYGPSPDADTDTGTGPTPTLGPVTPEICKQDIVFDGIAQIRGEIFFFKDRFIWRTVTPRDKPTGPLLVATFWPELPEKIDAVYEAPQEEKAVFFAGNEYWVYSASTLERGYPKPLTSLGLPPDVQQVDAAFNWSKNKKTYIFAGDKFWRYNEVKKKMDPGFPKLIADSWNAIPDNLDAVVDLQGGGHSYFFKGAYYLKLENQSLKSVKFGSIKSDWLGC
T2 sequence (P41245 108-730): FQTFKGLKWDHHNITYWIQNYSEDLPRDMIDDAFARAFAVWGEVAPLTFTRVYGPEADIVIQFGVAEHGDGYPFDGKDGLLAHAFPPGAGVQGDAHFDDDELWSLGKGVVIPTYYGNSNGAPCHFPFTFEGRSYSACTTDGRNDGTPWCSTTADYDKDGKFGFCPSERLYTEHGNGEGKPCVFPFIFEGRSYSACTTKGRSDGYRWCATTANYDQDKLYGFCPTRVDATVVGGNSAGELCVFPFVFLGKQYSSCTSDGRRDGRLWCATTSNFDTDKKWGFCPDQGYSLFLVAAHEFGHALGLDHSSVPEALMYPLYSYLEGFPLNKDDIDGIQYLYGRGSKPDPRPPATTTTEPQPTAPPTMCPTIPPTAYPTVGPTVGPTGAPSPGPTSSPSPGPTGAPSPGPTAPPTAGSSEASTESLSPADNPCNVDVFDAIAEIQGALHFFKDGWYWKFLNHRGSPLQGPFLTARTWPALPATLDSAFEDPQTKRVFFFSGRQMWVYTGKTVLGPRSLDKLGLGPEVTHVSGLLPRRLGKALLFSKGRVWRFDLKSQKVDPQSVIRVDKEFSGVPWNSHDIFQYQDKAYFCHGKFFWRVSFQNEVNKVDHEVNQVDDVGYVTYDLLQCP
T3 sequence (P08253 110-446 limits assumed): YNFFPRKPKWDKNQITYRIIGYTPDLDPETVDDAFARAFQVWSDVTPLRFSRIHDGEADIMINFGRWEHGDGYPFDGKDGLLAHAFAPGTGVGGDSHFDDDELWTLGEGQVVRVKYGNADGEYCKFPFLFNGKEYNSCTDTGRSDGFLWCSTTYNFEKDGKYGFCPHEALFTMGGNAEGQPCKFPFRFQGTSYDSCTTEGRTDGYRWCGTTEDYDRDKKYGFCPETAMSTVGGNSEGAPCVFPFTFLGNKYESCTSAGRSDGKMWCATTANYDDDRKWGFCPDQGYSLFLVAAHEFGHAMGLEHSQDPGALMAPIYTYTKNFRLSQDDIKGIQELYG

koff [1, 7]: ~4 10^−4 s^−1
kon [1, 7]: ~7 10^4 M^−1 s^−1
affinity for mMMP-9 (in words) [4]: high affinity
affinity for hMMP-2 (in words) [5]: high affinity
affinity for mMMP-2 (in words) [6]: low affinity
Ki ([6]; IgG, Table 12): 76 nM
B1: M0237-D02: MMP-9/-2 dual reactive antibody inhibitor (parental); sFab and hIgG1 (antibody, V domains shown)
VH: EVQLLESGGGLVQPGGSLRLSCAASGFTFSQYPMWWVRQAPGKGLEWVSYIVPSGGRTYYADSVKGRFTISRDNSKNTLYLQMNSLRAEDTAVYYCAKDRAYGDYVGWNGFDYWGQGTLVTVSS
VL: DIQMTQSPATLSLSPGERATLSCRASQSISSFLAWYQQKPGQAPRLLIYDASYRATGIPARFSGSGSGTDFTLTISSLEPEDYAVYYCQQRGNWPITFGQGTRLEIK
kobs ([1]; M0237-D02 concentration 14.4 nM): 0.0013 s⁻¹
kobs ([1]; M0237-D02 concentration 19.2 nM): 0.0019 s⁻¹
kobs ([1]; M0237-D02 concentration 28.8 nM): 0.0024 s⁻¹
kobs ([1]; M0237-D02 concentration 115.2 nM): 0.0086 s⁻¹
inhibition of gelatinolytic activity [2]: complete inhibition
inhibition of gelatinolytic activity [3]: complete inhibition
